Where “and” joins values, the source holds several entries; their conditions need not be identical. Identical values can stand only once.
T1: recombinant human RNF43 extracellular domain (human, UniProt Q68DV7 24-197)
T1 construct: extracellular domain; also called huRNF43; human RNF43 ECD
T1 sequence (looked up): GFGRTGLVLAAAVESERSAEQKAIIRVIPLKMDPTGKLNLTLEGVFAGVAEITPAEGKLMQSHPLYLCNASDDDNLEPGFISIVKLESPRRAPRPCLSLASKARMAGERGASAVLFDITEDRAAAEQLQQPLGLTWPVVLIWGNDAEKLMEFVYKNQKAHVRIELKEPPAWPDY

B1: RNF43-71 (antibody, V domains shown)
VH: QVKLLQSGAALVKPGDSVKMSCKASGYTFTDHIIHWVKQSHGKSLEWIGYINPYSGSTNYNEKFKSKATLTVDRSNNTAYMEFSRLTSEDSAIYYCARKNYGGYGVMDAWGQGASVTVSS
VL: DIQMTQSPSLLSASVGDRVTLSCKASQNIYKNLAWHQQKLGEAPKLLIYYANSLQTGIPSRFSGSGFGTDYTLTISSLQPEDVATYFCQQSSSGWTFGGGTKLELK
notes: Rat clone; VH/VL only
B2: RNF43-61 (antibody, V domains shown)
VH: EVQLVESGGDLVQPGRSLTLSCAASGFIFSDYYMAWVRQAPKKGLEWVASITYEGSSTYYGDSVKGRFTISRDNTKSTLYLLMNSLRSDDSATYYCARHGAHYTYNYAYYFDYWGQGVMVTVSS
VL: DIMLTQSPTTLSVIPGENISLSCRASQSVGTNLHWYQQKPSESPRVLINYASQSISGIPSRFSGSGSGTDFTLNINRVEPEDSSVYYCQQSKSWPFTFGSGTKLEIK
notes: Rat clone; VH/VL only
B3: RNF43-74 (antibody, V domains shown)
VH: EVQLVESGGDLVQPGRSLTLSCAASGFTFSDYYMAWVRQAPKKGLEWVASITYEGSSTYYGDSVKGRFTISRDNTKSTLYLLMNSLRSDDTATYYCARHGAHYTYNYAYYFDYWGQGVMVTVSS
VL: DIMLTQSPTTLSVIPGENISLSCRASQSVGTNLHWYQQKPSESPRVLINYASQSISGIPSRFSGSGSGTDFTLNINRVEPEDSSVYYCQQSKSWPFTFGSGTKLEIK
notes: Rat clone; VH/VL only
B4: RNF43-31 (antibody, V domains shown)
VH: AVQLVESGGGSVQPGRSMRLSCAASGFTFSNYDMTWVRQAPTKGLEWVASITYDGGSTYSRDSVKGRFTISRDNAKSTLYLQMDSLRSEDTATYYCTTDRGRYLPYYFDYWGQGVMVTVSA
VL: DVVLTQTPVSLSVTLGDQASISCRSSQSLEYSDGYSYLEWYLQKPGQSPQLLIYEVSSRFSGVPDRFIGSGSGTDFTLKISRVEPEDLGVYYCFQAIHDPTFGAGTKLELK
notes: Rat clone; VH/VL only
B5: RNF43-67 (antibody, V domains shown)
VH: AVQLVESGGGSVQPGRSMRLSCAASGFTFSNYDMTWVRQAPTKGLEWVASITSDGGSTYSRDSVKGRFTISRDNAKSTLYLQMDSLRSEDTATYYCTTDRGRYLPYYFDYWGQGVMVTVSA
VL: DVVLTQTPVSLSVTVGDQASISCRSSQSLEYSDGYSYLEWYLQKPGQSPQLLIYEVSSRFSGVPDRFIGSGSGTDFTLKISRVEPEDLGVYYCFQAIHDPTFGAGTKLELK
notes: Rat clone; VH/VL only
B6: RNF43-41 (antibody, V domains shown)
VH: EVHLVESGGGLVQPGRSVKLSCTASGFTFSYYDMAWVRQAPTKGLEWVASLTYDGSSTYYRDSVKGRFTISRDNAKSTLYLQMDSLRSEDTATYYCTTDRGRYLPYHFDYWGQGVMVTVSS
VL: DVVLTQTPVSLSVTLGDQASISCRSSQSLEYSDGYTYLEWYLQKPGQSPQLLIYEVSTRFSGVPDRFIGSGSGTDFTLKISRVEPEDLGVYYCFQATHDPTFGAGTKLELK
notes: Rat clone; VH/VL only
B7: RNF43-80 (antibody, V domains shown)
VH: EVQLVESGGGLVQPGRSLKVSCLASGFNFGDFGMNWIRQAPGKGLEWVSYISSTSGTIYYADTVKGRFTISRDNAKNTLYLQLSSLRSEDTALYYCARPAGRYFDYWGQGVLVTVSS
VL: DIVMTQSPSSLAVSAGETVTIDCKSNQSLLYSGNQKNYLAWYQQKPGQSPKLLIYWTSTRQSGVPDRFIGSGSGTEFTLTISSVQAEDLAIYYCQQYYHTPFTFGSGTKLEIK
notes: Rat clone; VH/VL only
B8: RNF43-86 (antibody, V domains shown)
VH: EVQLVESGGGLVQPGRSLKLSCAASGFTFTNYYMAWVRQAPTKGLEWVASISPSGDTTYYPDSVKGRFTVSRDNAKSTQYLQMDNLRSEDTATYYCARDAYTYYGYKGWYFDFWGPGTMVTVSS
VL: QFVLTQPNSVSTNLGSAVKLSCKRSTDDIGSNYVNWYQQHEGRSPTTMIYRDDKRPDGVPDRFSGSIDRSSNSALLTINNVQTEDEADYFCQSYSSGIYIFGGGTKLTVL
notes: Rat clone; VH/VL only
B9: RNF43-53 (antibody, V domains shown)
VH: EVQLVESGGGLVQPGRSLKLSCGASGFSFSTYYMVWVRQAPTKGLEWVASISPNGGNTYYPDSVKGRFTISRDNAKSTQYLQMDSLRSEDTATYYCATDGSYYYDGYRWLAYWGQGTLVTVSS
VL: QFVLTQPNSVSTNLGSTVKLSCKRSTGNIGSNYVSWYQQHEGRSPTTLIYRDDKRPDGVPDRFSGSIDRSSNSALLTINNVQTEDEAGYFCQSFSSGLFIFGGGTKLTVL
notes: Rat clone; VH/VL only
B10: RNF43-181 (antibody, V domains shown)
VH: QIQLQQSGAELVKPGSSVKISCKSSAYRFTSNFIHWIRQQPGNGLEWIGWIYPGDGDAENNQKFNGKVILTADKSSSTAYMQLSSLTSEDSAVYFCARGVMTSLWYFDFWGPGTMVTVSS
VL: DVQMTQSPYNLAASPGESVSINCKASKSISKYLAWYQQKPGKTNKLLIYDGSTLQSGIPSRFSGSGSGTDFTLTIRSLEPEDFGLYYCQQHHEQPPTFGSGTKLEIK
notes: Rat clone; VH/VL only
B11: RNF43-196 (antibody, V domains shown)
VH: QVQLQQSGAELVKPGSSVKISCKASGFTFTSNFMHWIKQQPGNGLEWIGWIYPGDGDTDYNQKFNGKATLTADKSSSTAYMELSSLTSEDSAVYFCARAYYGSYWYFDFWGPGTKVTVSS
VL: DVQMTQSPHNLAASPGESVSINCKASKSISKYLAWYQQKPGKVKKLLIYGGSTLQSGIPSRFSGSGSGTDFTLTISSLEPEDFGLYYCQQHNEYPPTFGGGTRLELQ
notes: Rat clone; VH/VL only
B12: RNF43-38 (antibody, V domains shown)
VH: EVQLVESGGGLVQPGTSLKISCVASGFTFSDYWMSWVRQTPGKTMEWIGDIKSDGSYTNYAPSLKNRFTISRDNAKSTLYLQMNNVRSEDTATYYCTRDAYRYNYVHYGLDAWGQGASVTVSS
VL: QFVLTQPNSVSANLGSTVKLSCNRSTGNIGSNYVSWYQQHEGRSPTTMLYRDGKRPDGIPDRFSGSIDGSSNSALLTINNVQTEDEADYFCQSYSSGIKYIFGGGTKLTVL
notes: Rat clone; VH/VL only
B13: RNF43-56 (antibody, V domains shown)
VH: EVQLVESGGGLVQPGTSLKISCVASGFTFSDYWMSWVRQTPGRTMEWIGDIKYDGSYTNYAPSLKNRFTISRDNAKSILYLQMNNVRSEDTATYYCTRDAYGYNYVHYGLDAWGQGASVTVSS
VL: QFVLTQPNSVSSNLGSTVKLSCNRSTGNIGSNYVSWYQQHEGRSPTTMIYRDDKRPDGIPDRFSGSIDGSSNSALLTINNVQTEDEADYFCQSYSSDIKYIFGGGTKLTVL
notes: Rat clone; VH/VL only
B14: RNF43-130 (antibody, V domains shown)
VH: QVQLVQSGAEVVKPGSSVKISCKASGYTFTGNFIHWIKQQPGNGLEWIGWIYPGDGDTTYNQKFSGKATLTADKSSSTAYMQLSNLTSEDSAVYFCAKWRDLSSDWFAYWGQGTLVTVSS
VL: DIVMTQSPVSLTVSEGEMVTINCKSSQSLLSSGNQKNYLAWYQQKPGQSPRLLIYFTSTRQSGVPDRFIGSGSGTDFTLTISDVQAEDLADYYCLQHYSYPNTFGAGTKLELK
notes: Rat clone; VH/VL only
B15: RNF43-136 (antibody, V domains shown)
VH: QVQLQQSGAELVKPGSSVKISCKASGYTFTSKFMHWIKQQPGSGLEWIGWIYPEHGNTKYNQKFDGKATLTADKSSSTAYMQLSSLTSGDSAVYFCARQSSQGAYAMDAWGQGTSVTVSS
VL: DIQMTQSPVSLSASLGQTVSIECLTSEGIPIDLAWYQQKSGKSPQLLIYAASRSQDGVPSRFSGSGSGTRYSLKISGMQPEDEADYFCQQTYKYPFTFGSGTRLEIK
notes: Rat clone; VH/VL only
B16: RNF43-177 (antibody, V domains shown)
VH: QVKLLQSGAALVKPGDSAKMSCKASGYTFTDSIIHWVKQSHGKSLEWIGYINPYSGGIQYNEKFKNKATLTVDKSSSTAYVEFSRLTSEDSAIYYCAREIRGMDAWGQGTSVTVSS
VL: DIVLTQSPATLSVTPGESVSLSCRASQGISTSLHWYQQKSTESPRLLIKYASQSVSGIPSRFSGSGSGTDFTLSINRVESEDFSVYYCQQSYNLPRTFGPGTKLELK
notes: Rat clone; VH/VL only
B17: RNF43-116 (antibody, V domains shown)
VH: QVQLQQSGAELAKPGSSVKISCKASGYTFTSYYISWIKQTTGQDLEYIGYVNTRSGGTNYNEKFKVKATLTVDNSSSTAFMQLSSLTPDDSAVYYCARGRTDWGQGTLVTVSS
VL: DIQMTQSPSLLSASVGDRVTVNCKASQNIYKNLEWYQQKHGEAPKLLIYYTNNLQTGISSRFSGSGSGTDYTLTISSLQPEDVATYYCFQYNSGYTFGAGTKLELK
notes: Rat clone; VH/VL only
B18: RNF43-104 (antibody, V domains shown)
VH: QVQLKESGPGLVQPSQTLSLTCSVSGFSLTSFHVHWVRQPPGKGLEWMGLMWSNGDTSYNSDLKSRLSISRDTSKSQVFLKMHSLQTEDTATYYCARTDVYHGFGAMDAWGQGTSVTVSS
VL: DIQMTQSPSFLSASLGNSITITCHASQFIKGWLAWYQQKSGNAPELLIYKSSSLHSGVPSRFSGSGSGTDYILTISNLQPEDIATYYCQHYQGFPLTFGSGTKLEIK
notes: Rat clone; VH/VL only
B19: RNF43-145 (antibody, V domains shown)
VH: EVQLKESGPGLVQPSQTLSLTCTVSGFSLTDYSVYWVRQPPGKGLEWMGVMWSGGTTAYNSALKSRLSISRDTSKSQVFLKMNSLQTEDTAIYYCTRGGKYDGTYYYGWYFDFWGPGTMVTVSS
VL: DVVLTQSPATLSVTPGERISLSCRASESVDTYLYWYQQKPNESPRLLIKYASQSISGIPSRFSGSGSGTDFTLSINGVELEDLSIYYCQQGNSLPLTFGSGTKLEIK
notes: Rat clone; VH/VL only

Biological target: T1, recombinant human RNF43 extracellular …
Experiment: SPR Biacore 8K; antibody captured on Protein A; RNF43 ECD analyte; 25 C
Protocol: Antibodies were screened for binding to recombinant human RNF43 and ZNRF3 ECDs using a Biacore® 8 k instrument (GE Life Sciences). Briefly, antibodies diluted to 1 μg/ml in 1×HBSP buffer (Cytiva, BR100368) were captured on a Sensor Chip Protein A (GE Life Sciences) using a flow rate of 10 μl/minute and a contact time of 60 seconds. Binding of recombinant human RNF43 and ZNRF3 extracellular domain to the captured antibodies was analyzed at 25° C. using a single cycle kinetics method with a flow rate of 30 μl/minute, a contact time of 180 seconds and a dissociation time of 600 seconds. The concentration of recombinant human RNF43 and ZNRF3 extracellular domain in the single cycle kinetics were 0, 0.8, 4, 20, and 100 nM. Between cycles, the chip was regenerated using 10 mM Glycine HCl pH 1.5 injected for 30 seconds at 30 μl/minute. Data were evaluated using Biacore 8K Evaluation software (GE Life Sciences). Kinetic constants were obtained using a 1:1 binding model with the parameter RI set to zero. Cell surface ligase antibodies with sub-nanomolar affinities may provide advantages in certain instances, for example, in the degradation efficiency which is correlated with the durability of the ternary complex as shown in FIG. 5D.

Binder	Kd
B1	0.03 nM
B2	0.43 nM
B3	0.35 nM
B4	0.13 nM
B5	0.59 nM
B6	0.37 nM
B7	0.48 nM
B8	17.3 nM
B9	3.3 nM
B10	0.0859 nM
B11	0.114 nM
B12	4.93 nM and 8.66 nM
B13	1.84 nM
B14	0.134 nM
B15	1.91 nM
B16	6.47 nM
B17	1.42 nM
B18	9.12 nM
B19	0.504 nM

Source: patent publication US20240101708A1 (Genentech, published 2024)
